The record followed here is patent US7256013B2, “Kit for determining the acetylation level of a peptide based on sensitivity of the peptide to peptidase” (Cyclex Co., Ltd., priority 1999, dated 2007).

One assay has as its target T1, recombinant SIRT1 (Homo sapiens, UniProt Q96EB6).
T1 construct: the first amino acid residue to the 747th residue of SIRT1 (full length) was amplified using this primer set; made in house; host or cells: E. coli BL21 Gold (DE3), vector pGEX-4T-1
T1 sequence (Q96EB6 1-747): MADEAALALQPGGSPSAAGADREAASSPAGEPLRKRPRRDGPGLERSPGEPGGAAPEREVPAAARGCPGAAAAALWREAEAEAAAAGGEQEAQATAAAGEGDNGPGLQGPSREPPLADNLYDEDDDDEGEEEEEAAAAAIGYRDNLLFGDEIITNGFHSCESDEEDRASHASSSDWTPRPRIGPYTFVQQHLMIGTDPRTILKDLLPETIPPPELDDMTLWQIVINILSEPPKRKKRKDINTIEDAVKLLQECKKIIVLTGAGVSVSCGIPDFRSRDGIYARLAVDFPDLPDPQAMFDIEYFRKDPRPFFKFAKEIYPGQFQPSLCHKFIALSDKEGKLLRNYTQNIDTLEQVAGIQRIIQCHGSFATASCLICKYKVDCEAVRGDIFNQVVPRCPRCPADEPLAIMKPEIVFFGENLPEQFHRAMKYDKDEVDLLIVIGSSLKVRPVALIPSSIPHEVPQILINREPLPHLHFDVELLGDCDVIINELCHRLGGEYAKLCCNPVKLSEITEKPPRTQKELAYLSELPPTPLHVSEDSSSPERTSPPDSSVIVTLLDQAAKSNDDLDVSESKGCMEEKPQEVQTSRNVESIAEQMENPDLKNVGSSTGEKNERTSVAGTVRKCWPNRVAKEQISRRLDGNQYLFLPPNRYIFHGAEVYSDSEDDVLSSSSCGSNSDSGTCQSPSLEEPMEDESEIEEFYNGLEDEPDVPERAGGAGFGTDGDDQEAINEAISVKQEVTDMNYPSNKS
Put plainly: SIRT1 deacetylase activity assay (FMAP) with Nma-VGAK(Ac)RHSK(Dnp)-NH2 and lysylendopeptidase. The assay is classed as biochemical. As to conditions: serial dilutions of NAD added to the reaction solution; FIG. 7. The procedure: Peptide for the SIRT1-activity assay: Nma-VGAK(Ac)RHSK(Dnp)-NH2
5 μl of 0.005 U/μl lysylendopeptidase (LEP) was combined with 90 μl of an enzyme reaction buffer (50 mM Tris-HCl (pH 8.8), 4 mM MgCl2, 0.2 mM DTT) and 1 μl of 10 mM peptide solution for SIRT1-activity assay. 2 μl of 5 mM NAD and 2 μl of each of serial dilutions of a recombinant SIRT1 solution, or alternatively 2 μl of each of serial dilutions of an NAD solution and 2 μl of a solution containing 1 mg/ml recombinant SIRT1 were added at the same time to the mixture. The enzyme reaction and fluorescence assay were performed at 30° C. using 384-well plates for fluorescence assay.
The fluorescence intensity was measured at excitation wavelength 355 nm/fluorescence wavelength 460 nm by using a Wallac 1420 ARVO HTS Multi Label Counter. The measurement was repeated at about 2- to 3-minute intervals for 50 minutes.
It has been reported that the presence of NAD is essential for the deacetylase activity of SIRT1. In order to assess whether the NAD-dependency of SIRT1 activity can be detected using the assay method, an NAD solution was serially diluted and each dilution was added to the reaction solution, and then observation was made for the changes in the fluorescence intensity.

For a further assay, the system named is histone deacetylase. Put plainly: Histone deacetylase activity assay with Boc-Val-Leu-(Ac)Lys-MCA and lysylendopeptidase (fluorescence). The settings on record: at a concentration of about 200 nM; FIG. 5. The assay is classed as biochemical, human. The method, then: MCF7 cells were washed with PBS, and then centrifuged. Precipitated cells were suspended in 4 ml lysis buffer and were left standing 15 minutes on ice. 5 ml lysate buffer was obtained by washing the centrifuge tube with 1 ml lysis buffer. The lysate was loaded on 15 ml sucrose cushion buffer in a centrifuge tube for type-07 rotor. Then, The tubes were centrifuged at 1300 g for 20 minutes and precipitated cells were recovered with 1.5 ml of the lysis buffer. After washing the cells, the cells were suspended in 700 μl low-salt buffer. The cells were sonicated for 30 seconds, and then allowed to stand still on ice for 30 minutes. The lysate was centrifuged at 100,000 g for 40 minutes, and the supernatant was collected to recover crude histone deacetylase. The pooled crude histone deacetylase was placed in a 1.5-ml tube, and was dialyzed overnight against a solution containing 50% glycerol, 150 mM NaCl, and 20 mM Tris (pH 7.5). The dialysate was substituted 3 times with fresh buffer. […]
1 μl of DMSO solution containing 10 mM substrate peptide, Boc-Val-Leu-(Ac)Lys-MCA, was added to 64 μl HDAC reaction buffer (25 mM Tris-HCl pH 7.5) for each assay. […] The fluorescence intensity was measured every 150 seconds with fluorescence microplate reader. The fluorescence intensity was measured using Wallac 1420 ARVOsx Multi Label Counter (Amersham-Pharmacia Biotech). […]

A further assay has as its target plasmin (Homo sapiens, UniProt P00747). In words: Cleavage of fluorescence-labeled substrate peptide by plasmin. The settings on record: 0.001U plasmin; FIG. 2. Type of assay: biochemical. The procedure:
(§1) 1 μl of DMSO solution containing 10 mM substrate peptide, Boc-Val-Leu-(Ac)Lys-MCA, was added to 64 μl HDAC reaction buffer (25 mM Tris-HCl pH 7.5) for each assay. The mixture was poured into the wells of a microplate for fluorometry and was incubated at 30° C. Then, 10 μl of histone deacetylase solution was added to each well and the plate was subjected for deacetylation at 30° C. for 60 minutes. After the reaction, 5 μl of peptidase solution that was diluted with 25 mM Tris-HCl (pH 7.5) to an optimal concentration and 20 μl 5× protease reaction buffer were added to each well. The fluorescence intensity was measured every 150 seconds with fluorescence microplate reader. The fluorescence intensity was measured using Wallac 1420 ARVOsx Multi Label Counter (Amersham-Pharmacia Biotech). The composition of the reaction buffer was as follows.
(§2) 5×10^−6 AU lysylendopeptidase or 0.001U plasmin was added to Boc-Val-Leu-Lys-MCA or Boc-Val-Leu-(Ac)Lys-MCA. The Figures show the fluorescence intensity measured at an interval of about 150-seconds.

The target of another assay is lysylendopeptidase (Achromobacter lyticus, UniProt P15636). In words: Cleavage of fluorescence-labeled substrate peptide by lysylendopeptidase. The assay is classed as biochemical. The settings on record: 5×10^−6 AU lysylendopeptidase; FIG. 1. The procedure:
as §1, §2

The star is where a group is joined. AMC = Cc1cc(=O)oc2cc(N*)ccc12; Boc = CC(C)(C)OC(=O)*

Chain of plasmin (P00747 581-810 limits assumed, species assumed): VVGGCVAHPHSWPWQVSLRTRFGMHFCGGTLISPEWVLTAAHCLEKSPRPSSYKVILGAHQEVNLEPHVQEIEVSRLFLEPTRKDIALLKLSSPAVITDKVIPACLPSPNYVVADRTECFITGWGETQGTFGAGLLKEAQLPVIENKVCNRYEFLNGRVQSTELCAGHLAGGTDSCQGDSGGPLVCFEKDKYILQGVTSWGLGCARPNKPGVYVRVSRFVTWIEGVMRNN
Chain of plasmin (P00747 97-580 partner limits assumed, species assumed): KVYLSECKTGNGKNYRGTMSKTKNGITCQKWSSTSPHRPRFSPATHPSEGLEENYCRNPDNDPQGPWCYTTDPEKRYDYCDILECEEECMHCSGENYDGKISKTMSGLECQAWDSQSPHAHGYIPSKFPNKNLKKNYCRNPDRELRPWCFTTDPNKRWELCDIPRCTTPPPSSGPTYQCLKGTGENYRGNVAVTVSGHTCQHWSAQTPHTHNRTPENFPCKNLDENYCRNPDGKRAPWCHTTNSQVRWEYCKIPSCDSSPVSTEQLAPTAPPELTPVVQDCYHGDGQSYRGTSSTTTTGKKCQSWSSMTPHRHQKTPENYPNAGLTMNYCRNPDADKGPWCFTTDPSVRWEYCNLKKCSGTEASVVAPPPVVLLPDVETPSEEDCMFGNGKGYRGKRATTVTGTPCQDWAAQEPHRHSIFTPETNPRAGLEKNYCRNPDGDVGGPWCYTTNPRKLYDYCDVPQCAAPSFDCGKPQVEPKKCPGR
Chain of lysylendopeptidase (P15636 206-473 limits assumed, species assumed): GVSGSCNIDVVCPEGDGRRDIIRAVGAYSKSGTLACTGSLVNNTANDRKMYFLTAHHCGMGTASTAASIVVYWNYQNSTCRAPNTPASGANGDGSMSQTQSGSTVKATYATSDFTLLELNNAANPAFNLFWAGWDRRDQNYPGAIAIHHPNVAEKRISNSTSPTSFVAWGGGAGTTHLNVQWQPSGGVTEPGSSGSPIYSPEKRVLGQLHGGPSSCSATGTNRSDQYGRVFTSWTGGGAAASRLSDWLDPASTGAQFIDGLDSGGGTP

Take `NC(=O)c1ccc[n+]([C@@H]2O[C@H](COP(=O)([O-])OP(=O)(O)OC[C@H]3O[C@@H](n4cnc5c(N)ncnc54)[C@H](O)[C@@H]3O)[C@@H](O)[C@H]2O)c1` [NAD]: the “fluorescence intensity (deacetylation activity of recombinant SIRT1)” value on recombinant SIRT1 is “increased in an NAD concentration-dependent fashion”.

On to `CC(/C=C/C(=O)NO)=C\[C@@H](C)C(=O)c1ccc(N(C)C)cc1` [Trichostatin A], for which the “effect on the deacetylation reaction (inhibition)” value with histone deacetylase is reported as “almost completely inhibited”.

Turning to “Boc-Val-Leu-(Ac)Lys-MCA (VLK; HELM PEPTIDE1{[CC(C)(C)OC(=O)[*:2]].V.L.K.[Cc1cc(=O)oc2cc(N[*:1])ccc12]}|PEPTIDE2{[ac]}$PEPTIDE1,PEPTIDE2,4:R3-1:R2$$$V2.0; SMILES CC(=O)NCCCC[C@H](NC(=O)[C@H](CC(C)C)NC(=O)[C@@H](NC(=O)OC(C)(C)C)C(C)C)C(=O)Nc1ccc2c(C)cc(=O)oc2c1) [fluorescence labeled substrate peptide with an acetylated lysine residue]”, in the assay with plasmin, the “peptide cleavage by plasmin” value is on record as “did not cleave”. In addition, the “peptide cleavage by lysylendopeptidase” value in the assay with lysylendopeptidase is recorded as “did not cleave”.

For “Boc-Val-Leu-Lys-MCA (Boc-Val-Leu-Lys-{AMC}) [fluorescence labeled substrate peptide, non-acetylated]”, the “peptide cleavage by plasmin” value in the assay with plasmin is given as “digested”. In the assay with lysylendopeptidase, the “peptide cleavage by lysylendopeptidase” value is “digested”.
